Consider 1 substance from article PMC3922039.

The target in this test is Mboumar-9 transposase (T216A) (Messor bouvieri). Briefly: SEC; analytical size-exclusion chromatography of DNA-free transposase on Superdex 200 at 4 °C; 5.7 uM in 50 uL of 20 mM PIPES pH 6.8, 500 mM NaCl, 5 mM MgCl2, 1 mM DTT; flow 0.5 mL/min. A general note: SEC sorts molecules by how far they enter the pores of the column.

A word on the stoichiometry N: it is the number of molecules, sites or subunits per partner or assembly. In the case of Mboumar-9 transposase (T216A) (enzyme), the stoichiometry N is 2.
